# Reference: US20230357422A1 (published 2023)
# Experiments:
# 4-1BB antigen = target: T1, 4-1BB antigen (human, UniProt Q07011 24-186, limits assumed); test: BLI (ForteBio), antibody on AHQ sensor, 100 nM 4-1BB antigen, 1:1 model
# T1 construct: also called human 4-1BB antigen; human 4-1BB protein
# Procedure: ForteBio affinity determination was performed according to the existing method (Estep, P et al., Solution-based measurement of high-throughput antibody-antigen affinity and epitope classification, MAbs, 2013.5(2):p. 270-8). Briefly, the sensor was equilibrated offline for 30 min in the assay buffer, then the baseline was established by detection online for 60 s, and the purified antibody obtained as described above was loaded onto the AHQ sensor online. Then, the sensor was put into 100 nM 4-1BB antigen to act for 5 minutes, and the sensor was transferred to PBS and dissociated for 5 minutes. Analysis of kinetics was performed using a 1:1 binding model.
# human 4-1BB on CHO cells = target: T2, human 4-1BB on CHO cells (human, UniProt Q07011 24-255); test: flow cytometry on CHO cells expressing human 4-1BB
# T2 construct: whole, on cells; also called CHO-h4-1BB cells; human 4-1BB CHO-S cells
# Procedure: CHO cells overexpressing human 4-1BB (CHO-h4-1BB cells) were generated by transfection of pCHO1.0 vector (purchased from Invitrogen) encoding human 4-1BB cDNA cloned into MCS (multiple cloning site). The cell density of the expanded CHO-h4-1BB cells was adjusted to 2×10⁶ cells/ml, added at 100 μl/well to a 96-well flow plate, and centrifuged for later use. The purified 4-1BB antibody was diluted with PBS by 3-fold dilution starting from 400 nM for a total of 12 points. The above-mentioned diluted sample was added at 100 μl/well to the above-mentioned 96-well flow plate with cells, incubated at 4° C. for 30 min, and washed twice with PBS. Goat F(ab′)2 anti-human IgG-Fc (PE) (purchased from Abcam) diluted 100 times with PBS was added at 100 μl/well, incubated at 4° C. for 30 min, and washed twice with PBS. The cells resuspended with PBS was added at 100 μl/well, and detected on CytoFlex (Bechman) flow cytometer, and the corresponding MFI was calculated.
# HZ-L-Yr-13&14-16-1 = test: ELISA on coated his-tagged protein
# Procedure: Human 4-1BB-his, GITR-his, OX40-his, CD40-his proteins (purchased from ACRO) were dissolved according to the instructions, diluted to 1 μg/ml with ELISA coating solution (purchased from Shanghai Sangon), coated on ELISA plate at 100 allowed to stand overnight at 4° C., and washed for 3 times with PBST, 5% BSA (purchased from Shanghai Sangon) was added at 200 μl/well to block for 1 hour at room temperature. The coating solution was discarded, 4-1BB antibody diluted with 1% BSA was added at 100 200 nM in three replicate wells, and incubated at room temperature for 2 hours. Washing was performed with PBST for 3 times, and goat anti-human IgG-Fc-HRP (purchased from abcam) diluted with 1% BSA was added at 100 μl/well, and incubated at room temperature for 1 hour. Washing was performed 3 times with PBST, ELISA chromogenic solution (purchased from Solarbio) was added at 100 μl/well to react at room temperature for 3 minutes, ELISA stop solution (purchased from Solarbio) was added at 50 and the absorbance value at 450 nm was read.
# T2 sequence (Q07011 24-255): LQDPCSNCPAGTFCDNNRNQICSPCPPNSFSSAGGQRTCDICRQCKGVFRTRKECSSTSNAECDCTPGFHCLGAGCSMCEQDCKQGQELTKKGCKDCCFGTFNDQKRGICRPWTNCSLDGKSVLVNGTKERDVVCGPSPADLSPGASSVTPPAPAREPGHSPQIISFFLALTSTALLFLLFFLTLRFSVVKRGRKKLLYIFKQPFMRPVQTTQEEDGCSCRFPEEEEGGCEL
# T1 sequence (Q07011 24-186 limits assumed): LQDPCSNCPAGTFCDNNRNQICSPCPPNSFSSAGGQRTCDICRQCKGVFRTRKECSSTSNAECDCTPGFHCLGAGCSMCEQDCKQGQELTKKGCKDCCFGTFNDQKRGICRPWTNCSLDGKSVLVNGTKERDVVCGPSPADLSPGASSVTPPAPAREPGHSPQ
binder,measurement,setting,value
L-Yr-13&14-06 (Fc fusion) QVQLQESGGGLVEAGGSLRLSCAASGSIFSINVMGWYRQAPGKQRELVAVITSDYSTNYADSVKGRFTISRDNAKNTVYLQMNSLKPEDTAVYHCAATGYGSSPWYWGQGTQVTVSSTHTCPPCPAPEAAGGPSVFLFPPKPKDTLMISRTPEVTCVVVDVSHEDPEVKFNWYVDGVEVHNAKTKPREEQYNSTYRVVSVLTVLHQDWLNGKEYKCKVSNKALPAPIEKTISKAKGQPREPQVYTLPPSREEMTKNQVSLTCLVKGFYPSDIAVEWESNGQPENNYKTTPPVLDSDGSFFLYSKLTVDKSRWQQGNVFSCSVMHEALHNHYTQKSLSLSPG,Kd,4-1BB antigen,20.6 nM
"Hu-A-NA-19-1 (Fc fusion, also called HZ-A-Na-19-1) EVQLVESGGGLVKPGGSLRLSCAASGAIFRINTGAWYRQAPGKQRELVASLTTYGKTTYADFVKGRFTISRDDSKNTLYLQMNSLKTEDTAVYYCHIGPEPRYGYWGQGTLVTVSSTHTCPPCPAPEAAGGPSVFLFPPKPKDTLMISRTPEVTCVVVDVSHEDPEVKFNWYVDGVEVHNAKTKPREEQYNSTYRVVSVLTVLHQDWLNGKEYKCKVSNKALPAPIEKTISKAKGQPREPQVYTLPPSREEMTKNQVSLTCLVKGFYPSDIAVEWESNGQPENNYKTTPPVLDSDGSFFLYSKLTVDKSRWQQGNVFSCSVMHEALHNHYTQKSLSLSPG",binding result,human 4-1BB on CHO cells,binds
"Hu-A-NA-19-2 (Fc fusion, also called HZ-A-Na-19-2) EVQLVESGGGLVKPGGSLRLSCAASGAIFRINTGAWYRQAPGKGLELVASLTTYGKTTYADFVKGRFTISRDDSKNTLYLQMNSLKTEDTAVYYCHIGPEPRYGYWGQGTLVTVSSTHTCPPCPAPEAAGGPSVFLFPPKPKDTLMISRTPEVTCVVVDVSHEDPEVKFNWYVDGVEVHNAKTKPREEQYNSTYRVVSVLTVLHQDWLNGKEYKCKVSNKALPAPIEKTISKAKGQPREPQVYTLPPSREEMTKNQVSLTCLVKGFYPSDIAVEWESNGQPENNYKTTPPVLDSDGSFFLYSKLTVDKSRWQQGNVFSCSVMHEALHNHYTQKSLSLSPG",binding result,human 4-1BB on CHO cells,binds
"GITR-his (receptor, human, UniProt Q9Y5U5 26-162, looked up, 'Human' heads the list '4-1BB-his, GITR-his, OX40-his, CD40-his' and is read as applying to all four; not shown: his tag) QRPTGGPGCGPGRLLLGTGTDARCCRVHTTRCCRDYPGEECCSEWDCMCVQPEFHCGDPCCTTCRHHPCPPGQGVQSQGKFSFGFQCIDCASGTFSGGHEGHCKPWTDCTQFGFLTVFPGNKTHNAVCVPGSPPAEP",binding result,HZ-L-Yr-13&14-16-1,no binding (tested: 200 nM)
"OX40-his (receptor, human, UniProt P43489 29-216, looked up, 'Human' heads the list and is read as applying to all four proteins; not shown: his tag) LHCVGDTYPSNDRCCHECRPGNGMVSRCSRSQNTVCRPCGPGFYNDVVSSKPCKPCTWCNLRSGSERKQLCTATQDTVCRCRAGTQPLDSYKPGVDCAPCPPGHFSPGDNQACKPWTNCTLAGKHTLQPASNSSDAICEDRDPPATQPQETQGPPARPITVQPTEAWPRTSQGPSTRPVEVPGGRAVA",binding result,HZ-L-Yr-13&14-16-1,no binding (tested: 200 nM)
HZ-L-Yr-13&14-16-2 (Fc fusion) QVQLVESGGGVVQPGRSLRLSCAASGSTFSIVAMGWYRQAPGKGLELVASIITGDGDTNYADSVKGRFTISRDNSKNTMYLQMNSLRAEDTAVYYCYARTGYGSSWLMGHEYDYWGQGTQVTVSSTHTCPPCPAPEAAGGPSVFLFPPKPKDTLMISRTPEVTCVVVDVSHEDPEVKFNWYVDGVEVHNAKTKPREEQYNSTYRVVSVLTVLHQDWLNGKEYKCKVSNKALPAPIEKTISKAKGQPREPQVYTLPPSREEMTKNQVSLTCLVKGFYPSDIAVEWESNGQPENNYKTTPPVLDSDGSFFLYSKLTVDKSRWQQGNVFSCSVMHEALHNHYTQKSLSLSPG,binding result,human 4-1BB on CHO cells,binds
